Laboratory results taken from patent publication US20210198650A1 (NIBEC, published 2021).

B1: GRS-DP polypeptide (GRS 531-600 aa) (peptide)
peptide: MYTVFEHTFHVREGDEQRTFFSFPAVVAPFKCSVLPLSQNQEFMPFVKELSEALTRHGVSHKVDDSSGSI
notes: Linear truncated GRS fragment; also called GRS-DP peptide
B2: GRS-DP-A cyclic (peptide)
peptide: CYTVFEHTFHVREGDEQRTFFSFPC
modifications: cyclic form: "monosulfide linkage" formed between the cysteine residues at the opposite termini (Cys 1 and Cys 25)
notes: Cyclised by spontaneous reaction at pH 8; 3.083 kDa; also called GRS-DP-A cyclic variant

The binders below were run against T1, cadherin6 (CDH6)-fc fusion protein (UniProt P55285 54-615, limits assumed) (assay: SPR, CDH6-Fc immobilised on carboxymethyl dextran chip, peptide injected).
T1 construct: Immobilised on a carboxymethyl dextran SPR chip; also called K-cadherin
T1 sequence (looked up): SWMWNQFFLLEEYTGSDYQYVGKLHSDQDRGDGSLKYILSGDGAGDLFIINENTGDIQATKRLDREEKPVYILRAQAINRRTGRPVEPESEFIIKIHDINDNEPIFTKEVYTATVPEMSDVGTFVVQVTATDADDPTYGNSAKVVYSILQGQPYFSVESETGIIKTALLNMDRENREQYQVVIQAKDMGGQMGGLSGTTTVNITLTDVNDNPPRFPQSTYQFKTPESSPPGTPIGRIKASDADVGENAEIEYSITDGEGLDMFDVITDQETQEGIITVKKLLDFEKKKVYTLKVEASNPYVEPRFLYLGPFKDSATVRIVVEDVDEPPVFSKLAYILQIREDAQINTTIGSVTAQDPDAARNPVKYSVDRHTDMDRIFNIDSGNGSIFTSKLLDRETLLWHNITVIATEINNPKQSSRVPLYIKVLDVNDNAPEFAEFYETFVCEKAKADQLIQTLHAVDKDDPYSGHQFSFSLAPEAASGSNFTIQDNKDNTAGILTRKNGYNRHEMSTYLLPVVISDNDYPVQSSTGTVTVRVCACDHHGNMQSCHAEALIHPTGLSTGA
Experimental: Comparison was made of the affinity of the peptides of the present invention for CDH6. The binding of GRS and GRS-derived peptides to cadherin6 (CDH6)-fc fusion protein was analyzed by surface plasmon resonance (SPR) using SR7500DC, Reichert Analytical Instrument (Depew NY). CDH6 was immobilized on a [CMDH chip] carboxymethyl dextran sensor chip via a free carboxyl group on the surface thereof, followed by injecting 0.1M 1-ethyl-3-(3-dimethylaminopropyl) carbodiimide hydrochloride and 0.05M N-hydroxysuccinimide at a flow speed of 5 μL/min to give an activated succinimide ester-modified surface. Various concentrations of GRS and GRS-derived peptides were injected at a flow speed of 30 μL/min into phosphate-based saline, after which a mobile-phase buffer was injected at the same flow speed to determine a dissociation rate. Data was analyzed using Software Scrubber 2.0 (Biological Software, Australia).
A Kd of 83.9 nM was found for B1 in this work. A Kd of 61.2 nM was found for MYTVFEHTFHVREGDEQRTFFSFPA (Linear 25-mer, 3.079 kDa) [GRS-DP-A linear (GRS 531-555 aa)] in this work. A Kd of 51.3 nM was found for B2 in this work.
